Assay results reported in publication PMC9531334.

Target: StnCBP-HA-NLuc
Test: SLC assay (split-luciferase complementation in leaves)
Settings: luminescence intensity/50 mm2 leaf area; n = 3; parent: est. 3500; read off a plot

CLuc-GFP-HC-Pro^O V346I
response: 3300
